# Experiments:
# Human ST2 = biological target: T1, Human ST2 (human, UniProt Q01638 19-328, limits assumed); test: SPR (Carterra), antibody immobilized, ST2 analyte, 1:1
# T1 construct: also called human ST2 protein; Interleukin 1 receptor-like 1
# T1 sequence (looked up): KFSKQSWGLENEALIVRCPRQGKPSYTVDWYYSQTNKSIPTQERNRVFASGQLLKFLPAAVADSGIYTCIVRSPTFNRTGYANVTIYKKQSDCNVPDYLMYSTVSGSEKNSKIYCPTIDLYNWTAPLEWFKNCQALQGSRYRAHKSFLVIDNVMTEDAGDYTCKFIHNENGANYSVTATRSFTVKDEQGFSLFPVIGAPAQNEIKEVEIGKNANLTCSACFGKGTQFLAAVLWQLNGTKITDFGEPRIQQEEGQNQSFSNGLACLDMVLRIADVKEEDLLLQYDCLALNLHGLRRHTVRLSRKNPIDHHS
# Protocol: (§1) Binding of the reformatted human ST2 antibodies to the human and mouse ST2 proteins was evaluated by surface plasmon resonance (SPR), using a high throughput antibody screening and characterization platform from Carterra (Salt Lake City, Utah).
# Mouse ST2 = biological target: T2, Mouse ST2 (mouse, UniProt P14719 27-332, limits assumed); test: as above
# T2 construct: also called mouse ST2 protein
# T2 sequence (looked up): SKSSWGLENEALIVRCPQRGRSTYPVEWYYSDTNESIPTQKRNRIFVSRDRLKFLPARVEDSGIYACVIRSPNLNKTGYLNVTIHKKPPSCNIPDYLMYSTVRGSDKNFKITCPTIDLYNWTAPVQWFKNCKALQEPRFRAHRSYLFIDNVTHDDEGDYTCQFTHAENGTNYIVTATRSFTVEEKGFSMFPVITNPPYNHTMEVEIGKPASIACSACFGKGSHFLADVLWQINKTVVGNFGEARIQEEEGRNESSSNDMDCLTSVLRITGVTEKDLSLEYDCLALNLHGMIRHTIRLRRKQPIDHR
# Protocol: as §1
Binder,Kd (Human ST2) [nM],koff (Human ST2) [s⁻¹],kon (Human ST2) [M⁻¹ s⁻¹],Kd (Mouse ST2) [nM],koff (Mouse ST2) [s⁻¹],kon (Mouse ST2) [M⁻¹ s⁻¹]
"Human ST2 IgG1 Antibody 101 (antibody, V domains shown, IgG1, kappa; also called ST2 Antibody 101) VH: QVQLVQSGAEVKKPGASVKVSCKASGYTFSTYDINWVRQAPGQGLEWVGIISPSGGWTTYAQKFQGRVTMTRDTSTSTVYMELSSLRSEDTAVYYCARVNYDILTGQGRGYYFDYWGQGTLVTVSS VL: DIQMTQSPSSLSASVGDRVTITCQATQDIADYLNWYQQKPGKAPKLLIYKASSLESGVPSRFSGSGSGTDFTLTISSLQPEDFATYYCQQSYSTPTFGPGTKVDIKR",590,0.11,190000,,,
"Human ST2 IgG1 Antibody 102 (antibody, V domains shown, IgG1, kappa) VH: QVQLVQSGAEVKKPGSSVKVSCKASGYIFTRYYVNWVRQAPGQGLEWMGGIIPMFGTSNYAQKFQGRVTITADESTSTAYMELSSLRSEDTAVYYCARSSGYDSFKIDYWGQGTLVTVSS VL: not shown",270,0.065,240000,,,
"Human ST2 IgG1 Antibody 38 (antibody, V domains shown, IgG1, kappa; also called ST2 Antibody 38) VH: QVQLVQSGAEVKKPGSSVKVSCKASGGTFSSYAISWVRQAPGQGLEWMGTIIPMFGIADYAQKFQGRVTITADESTSTAYMELSSLRSEDTAVYYCARSSRSSSWYNWYFDLWGRGTLVTVSS VL: EIVMTQSPATLSVSPGERATLSCRASQSISSSYLAWYQQKPGQAPRLLIYGASTRATGIPARFSGSGSGTEFTLTISSLQSEDFAVYYCQQYYTTPWTFGQGTKVEIKR",,,,529,0.09,170000
"Human ST2 IgG1 Antibody 39 (antibody, V domains shown, IgG1, kappa; also called ST2 Antibody 39) VH: QVQLVQSGAEVKKPGSSVKVSCKASGYTFTSYYMQWVRQAPGQGLEWMGGIIPIFGTANYAQKFQGRVTITADESTSTAYMELSSLRSEDTAVYYCARARFGAVDYWGQGTLVTVSS VL: not shown",,,,3400,0.14,42000
"Human ST2 IgG1 Antibody 41 (antibody, V domains shown, IgG1, kappa; also called ST2 Antibody 41) VH: QVQLVQSGAEVKKPGSSVKVSCKASGYTFTDYQMHWVRQAPGQGLEWVGVINPGGGSTTYAQTFQGRVTITADESTSTAYMELSSLRSEDTAVYYCARGGVEYSSSWDYYYYYGMDVWGQGTTVTVSS VL: not shown",,,,845,0.11,140000
"Human ST2 IgG1 Antibody 44 (antibody, V domains shown, IgG1, kappa; also called ST2 Antibody 44) VH: EVQLLESGGGLVKPGGSLRLSCAASGFTFSSYWMSWVRQAPGKGLEWVSAISGTAINTYYADSVKGRFTISRDDSKNTLYLQMNSLKTEDTAVYYCARVRRDSSGGGAFDIWGQGTMVTVSS VL: DIQMTQSPSSLSASVGDRVTITCRASQGISNNLNWYQQKPGKAPKLLIYAASSLQTGVPSRFSGSGSGTDFTLTISSLQPEDFATYYCQQSYSTPPTFGQGTKVEIKR",,,,999,0.11,110000
"Human ST2 IgG1 Antibody 45 (antibody, V domains shown, IgG1, kappa; also called ST2 Antibody 45) VH: QVQLVQSGAEVKKPGSSVKVSCKASGGTFSSYAISWVRQAPGQGLEWMGGIVPIFETANYAQKFQGRVTITADESTSTAYMELSSLRSEDTAVYYCARDTPNFDYWGQGTLVTVSS VL: not shown",,,,1400,0.13,95000
"Human ST2 IgG1 Antibody 49 (antibody, V domains shown, IgG1, kappa; also called ST2 Antibody 49) VH: QVQLVQSGAEVKKPGASVKVSCKASGGTLSSYAISWVRQAPGQGLEWMGGISPYNGKANYAEKLQGRVTMTRDTSTSTVYMELSSLRSEDTAVYYCAIRSIAAREGVYYYYMDVWGKGTTVTVSS VL: not shown",,,,436,0.12,270000
"Human ST2 IgG1 Antibody 52 (antibody, V domains shown, IgG1, kappa; also called ST2 Antibody 52) VH: QVQLVQSGAEVKKPGSSVKVSCKASGGTFSNYAISWVRQAPGQGLEWMGWISAYNGNTNYAQKFQGRVTITADESTSTAYMELSSLRSEDTAVYYCARLSTVTTRPYYYYGMDVWGQGTTVTVSS VL: DIVMTQSPLSLPVTPGEPASISCRSSQSLLHSNGYNYLDWYLQKPGQSPQLLIYAASSLQGGVPDRFSGSGSGTDFTLKISRVEAEDVGVYYCMQGTHWPTFGQGTKVEIKR",,,,2700,0.16,59000
"Human ST2 IgG1 Antibody 54 (antibody, V domains shown, IgG1, kappa; also called ST2 Antibody 54) VH: EVQLLESGGGLVQPGGSLRLSCAASGFTVSSNYMSWVRQAPGKGLEWVSAISGSGGSTYYADSVKGRFTISRDNSKNTLYLQMNSLRAEDTAVYYCARGRFGSRDVWGKGTTVTVSS VL: not shown",,,,2700,0.13,50000
"Human ST2 IgG1 Antibody 57 (antibody, V domains shown, IgG1, kappa; also called ST2 Antibody 57) VH: QVQLVQSGAEVKKPGASVKVSCKASGYTFTGYYMHWVRQAPGQGLEWMGVINPSGGSTSYAQKFQGRVTMTRDTSTSTVYMELSSLRSEDTAVYYCARGDYYYGSGSDYYYYYGMDVWGQGTLVTVSS VL: DIQMTQSPSSLSASVGDRVTITCRASQGVTSWLAWYQQKPGKAPKLLIYAASTLQSGVPSRFSGSGSGTDFTLTISSLQPEDFATYYCQQANSFPLTFGGGTKVEIKR",,,,3100,0.16,51000
"Human ST2 IgG1 Antibody 63 (antibody, V domains shown, IgG1, kappa; also called ST2 Antibody 63) VH: QVQLVQSGAEVKKPGSSVKVSCKASGGTFSSDAINWVRQAPGQGLEWMGGIVPAFGTANYAQKFQGRVTITADESTSTAYMELSSLRSEDTAVYYCARSSSSWPYYYYYMDVWGKGTTVTVSS VL: DIVMTQSPLSLPVTPGEPASISCRSSQSLLLNNGNNFIDWYLQKPGQSPQLLIYAASILQGGVPDRFSGSGSGTDFTLKISRVEAEDVGVYYCMQALQTPPTFGQGTKVEIKR",,,,2400,0.15,62000
"Human ST2 IgG1 Antibody 70 (antibody, V domains shown, IgG1, kappa; also called ST2 Antibody 70) VH: QVQLVQSGAEVKKPGSSVKVSCKASGYAFTDYFIHWVRQAPGQGLEWMGGIIPIFGTANYAQKFQGRVTITADKSTSTAYMELSSLRSEDTAVYYCARVAYGAFDIWGQGTMVTVSS VL: EIVMTQSPATLSVSPGERATLSCRASQSVSSSYLAWYQQKPGQAPRLLIYGASTRATGIPARFSGSGSGTEFTLTISSLQSEDFAVYYCQQYNNWPLTFGGGTKVEIKR",,,,3900,0.13,33000
"Human ST2 IgG1 Antibody 76 (antibody, V domains shown, IgG1, kappa; also called ST2 Antibody 76) VH: QVQLVQSGAEVKKPGSSVKVSCKASGYTFTDYYMHWVRQAPGQGLEWMGVIIPVLGAAKYAQKFQGRVTITADESTSTAYMELSSLRSEDTAVYYCAKGWGAFDIWGQGTMVTVSS VL: EIVMTQSPATLSVSPGERATLSCRASQSVSSYLAWYQQKPGQAPRLLIYGASTRASGIPARFSGSGSGTEFTLTISSLQSEDFAVYYCQQYYSYPWTFGQGTKVEIKR",,,,778,0.14,180000
"Human ST2 IgG1 Antibody 78 (antibody, V domains shown, IgG1, kappa; also called ST2 Antibody 78) VH: EVQLLESGGGLVQPGGSLRLSCAASDFNFKNAWMSWVRQAPGKGLEWVSAISGNGAGTYYADSVKGRFTISRDNSKNTLYLQMNSLRAEDTAVYYCARVGETGAFDIWGQGTTVTVSS VL: not shown",,,,744,0.13,180000
"Human ST2 IgG1 Antibody 83 (antibody, V domains shown, IgG1, kappa; also called ST2 Antibody 83) VH: EVQLLESGGGLVKPGGSLRLSCAASGFTFSSYWMSWVRQAPGKGLEWVSAIGTAGDTYYPGSVKGRFTISRDDSKNTLYLQMNSLKTEDTAVYYCAILRRDKVWPFDYWGQGTLVTVSS VL: DIQMTQSPSSLSASVGDRVTITCRASQSISSHLHWYQQKPGKAPKLLIYAASSLQSGVPSRFSGSGSGTDFTLTISSLQPEDFATYYCQQSYSSPVTFGGGTKVEIKR",,,,438,0.063,140000
"Human ST2 IgG1 Antibody 86 (antibody, V domains shown, IgG1, kappa; also called ST2 Antibody 86) VH: QVQLVQSGAEVKKPGSSVKVSCKASGGTFSNYAISWVRQAPGQGLEWMGGIIPIFGTANYAQKFQGRVTITADESTSTAYMELSSLRSEDTAVYYCAKDLGGWFNLFDPWGQGTLVTVSS VL: EIVMTQSPATLSVSPGERATLSCRASQGVSSYLAWYQQKPGQAPRLLIYGASTRATGIPARFSGSGSGTEFTLTISSLQSEDFAVYYCQQYRSFPLTFGGGTKVEIKR",,,,507,0.098,190000
"Human ST2 IgG1 Antibody 89 (antibody, V domains shown, IgG1, kappa; also called ST2 Antibody 89) VH: EVQLLESGGGLVKPGGSLRLSCAASGFTFSSYWMSWVRQAPGKGLEWVSAISGTAINTYYADSVKGRFTISRDDSKNTLYLQMNSLKTEDTAVYYCARVRRDSSGGGAFDIWGQGTMVTVSS VL: DIQMTQSPSSLSASVGDRVTITCRASQGISNNLNWYQQKPGKAPKLLIYAASSLQTGVPSRFSGSGSGTDFTLTISSLQPEDFATYYCQQSYSTPPTFGQGTKVEIKR",,,,989,0.1,100000
"Human ST2 IgG1 Antibody 98 (antibody, V domains shown, IgG1, kappa; also called ST2 Antibody 98) VH: EVQLLESGGGLVKPGGSLRLSCAASGFTFSSYWMSWVRQAPGKGLEWVSAISGTAINTYYADSVKGRFTISRDDSKNTLYLQMNSLKTEDTAVYYCARVRRDSSGGGAFDIWGQGTMVTVSS VL: DIQMTQSPSSLSASVGDRVTITCRASQGISNNLNWYQQKPGKAPKLLIYAASSLQTGVPSRFSGSGSGTDFTLTISSLQPEDFATYYCQQSYSTPPTFGQGTKVEIKR",,,,975,0.12,120000
"Human ST2 IgG1 Antibody 99 (antibody, V domains shown, IgG1, kappa; also called ST2 Antibody 99) VH: EVQLLESGGGLVQPGGSLRLSCAASGFTFSDYYMNWVRQAPGKGLEWVSTISGFGESTFYADSVKGRFTISRDNSKNTLYLQMNSLRAEDTAVYYCARLGAARAFDIWGQGTTVTVSS VL: DIQMTQSPSSLSASVGDRVTITCRASQSIGSWMAWYQQKPGKAPKLLIYAASTLQSGVPSRFSGSGSGTDFTLTISSLQPEDFATYYCQQSYTTPITFGPGTKVDIKR",,,,419,0.098,230000
